In US20120184713:

Experiments:
[1] = target: T1, Peptide2, OPN-ASARM derivative with all five Ser residues replaced by Ala
T1 chain: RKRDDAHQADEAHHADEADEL

[2] = target: T2, Fat2-3:FLAG (affinity-purified cadherin domains of Drosophila Fat), P33450
T2 chain: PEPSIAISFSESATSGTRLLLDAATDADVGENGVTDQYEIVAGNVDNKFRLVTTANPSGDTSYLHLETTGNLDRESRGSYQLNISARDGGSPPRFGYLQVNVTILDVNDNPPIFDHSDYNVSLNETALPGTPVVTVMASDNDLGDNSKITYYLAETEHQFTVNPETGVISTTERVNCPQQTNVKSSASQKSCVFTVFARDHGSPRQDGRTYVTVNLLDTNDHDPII

[3] = target: T3, BSP:FLAG (FLAG epitope-tagged mouse bone sialoprotein, affinity purified), Q61711
T3 chain: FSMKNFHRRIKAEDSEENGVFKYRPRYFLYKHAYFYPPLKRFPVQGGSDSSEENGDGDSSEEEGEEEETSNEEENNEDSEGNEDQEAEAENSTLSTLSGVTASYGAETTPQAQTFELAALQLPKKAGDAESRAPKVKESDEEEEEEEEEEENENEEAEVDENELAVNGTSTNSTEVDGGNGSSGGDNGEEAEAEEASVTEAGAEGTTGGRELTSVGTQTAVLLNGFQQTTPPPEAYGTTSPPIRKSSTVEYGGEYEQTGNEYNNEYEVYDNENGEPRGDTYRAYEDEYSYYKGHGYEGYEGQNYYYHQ

[4] = target: dephosphorylated alpha-Casein (Sigma)
[5] = target: T4, Peptide1, OPN-ASARM peptide (human Osteopontin 115Asp to 132Leu with N-terminal Arg-Lys-Arg)
T4 chain: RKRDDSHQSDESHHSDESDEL

[6] = target: Myelin Basic Protein (NEB)
[7] = target: T5, Peptide3, OPN-ASARM derivative with the three G-CK consensus Ser residues changed to Ala
T5 chain: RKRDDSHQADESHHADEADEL

[8] = target: T6, Peptide4, OPN-ASARM derivative with the other two Ser residues changed to Ala
T6 chain: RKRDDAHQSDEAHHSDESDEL

[9] = target: OPN:FLAG (FLAG epitope-tagged mouse osteopontin, affinity purified), P10923
[10] = target: T7, DMP1:FLAG (FLAG epitope-tagged mouse dentin matrix protein 1, affinity purified), O55188
T7 chain: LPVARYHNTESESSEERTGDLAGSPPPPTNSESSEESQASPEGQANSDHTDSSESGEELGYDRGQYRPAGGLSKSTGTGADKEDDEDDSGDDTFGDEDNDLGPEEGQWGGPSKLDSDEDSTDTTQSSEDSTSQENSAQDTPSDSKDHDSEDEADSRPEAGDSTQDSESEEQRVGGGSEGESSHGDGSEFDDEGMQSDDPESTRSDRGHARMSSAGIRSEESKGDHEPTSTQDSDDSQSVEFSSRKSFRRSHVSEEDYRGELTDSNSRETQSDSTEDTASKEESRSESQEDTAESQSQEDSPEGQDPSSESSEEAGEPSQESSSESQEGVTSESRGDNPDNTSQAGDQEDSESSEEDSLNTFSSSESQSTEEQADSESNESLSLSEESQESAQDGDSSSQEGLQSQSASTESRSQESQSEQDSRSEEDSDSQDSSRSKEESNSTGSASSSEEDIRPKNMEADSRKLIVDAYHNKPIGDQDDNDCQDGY

Chain of OPN:FLAG (FLAG epitope-tagged mouse osteopontin, affinity purified), P10923 (P10923 17-294): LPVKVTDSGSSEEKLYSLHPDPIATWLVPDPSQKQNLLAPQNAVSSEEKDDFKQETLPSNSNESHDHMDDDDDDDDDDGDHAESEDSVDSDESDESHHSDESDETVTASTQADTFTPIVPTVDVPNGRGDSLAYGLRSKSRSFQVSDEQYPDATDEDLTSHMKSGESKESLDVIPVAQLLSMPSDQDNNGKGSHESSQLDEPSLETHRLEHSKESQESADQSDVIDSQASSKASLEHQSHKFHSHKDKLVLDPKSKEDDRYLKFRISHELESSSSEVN

B1: FAM20C:V5 (V5-epitope tagged mouse FAM20C, affinity purified from conditioned medium of HEK293T cells) (protein)
chain: DFSSDPASNLTSHSLEKLPSAAEPVDHAPRGQEPRSPPPRDPAHRPLLRDPGPRPRVPPPGPSGDGSLLAKLFEHPLYQGAVPPLTEDDVLFNVNSDIRFNPKAAENPDWPHEGAEGAEFLPTGEAAVNLYPNWLKFHIGINRYELYSRHNPAIDALLRDLGSQKITSVAMKSGGTQLKLIMTFQNYGQALFKPMKQTREQETPPDFFYFSDYERHNAEIAAFHLDRILDFRRVPPVAGRMINMTKEIRDVTRDKKLWRTFFVSPANNICFYGECSYYCSTEHALCGRPDQIEGSLAAFLPDLSLAKRKTWRNPWRRSYHKRKKAEWEVDPDYCEEVKQTPPYDSGHRILDIMDMTVFDFLMGNMDRHHYETFEKFGNETFIIHLDNGRGFGKYSHDELSILAPLHQCCRIRRSTYLRLQLLAKEEHKLSLLMAESLQHDKVAPVLYQLHLEALDRRLRIVLQAVRDCVEKDGLSSVVEDDLATEHRASTER
in vitro kinase assay with peptide substrate [1]: a derivative with all five Ser residues replaced by Ala (OPN-ASARM^5S-A) was not phosphorylated
in vitro kinase assay (32P transfer) [2]: neither Myelin basic protein ... nor cadherin domains of Fat that are substrates for Fj, were detectably phosphorylated by FAM20C
in vitro kinase assay (32P transfer) [3]: Transfer of ^32P onto OPN, BSP, and DMP1 was observed in the presence of FAM20C:V5
Michaelis constant (Km), in vitro kinase assay [4]: a Michaelis constant (Km) of FAM20C for Casein of 1.5 µM
in vitro kinase assay (32P transfer) [4]: Dephosphorylated Casein was phosphorylated by purified FAM20C in vitro
in vitro kinase assay with peptide substrate [5]: In vitro kinase reactions confirmed that OPN-ASARM is a FAM20C substrate
in vitro kinase assay (32P transfer) [6]: neither Myelin basic protein ... nor cadherin domains of Fat ... were detectably phosphorylated by FAM20C
in vitro kinase assay with peptide substrate [7]: A peptide in which only the three G-CK concensus sites were changed to Ala (OPN-ASARM^3S-A) was phosphorylated much less effectively
in vitro kinase assay with peptide substrate [8]: a derivative in which the other two Ser residues were changed to Ala (OPN-ASARM^2S-A) was still efficiently phosphorylated by FAM20C
in vitro kinase assay (32P transfer) [9]: Transfer of ^32P onto OPN, BSP, and DMP1 was observed in the presence of FAM20C:V5
in vitro kinase assay (32P transfer) [10]: Transfer of ^32P onto OPN, BSP, and DMP1 was observed in the presence of FAM20C:V5
